Test results as given in article PMC9692666, “The Inhibitory Effects and Cytotoxic Activities of the Stem Extract of Sarracenia purpurea against Melanoma Cells and the SsbA Protein” (Plants, 2022).
Where two headings read alike, the source gives them in different places.

Legend:
SaSsbA [1] = biological target: T1, SaSsbA (Staphylococcus aureus, UniProt A0A0D1JHQ1); assay: EMSA inhibition of ssDNA binding
T1 construct: gene ssb; tetramer in crystal
T1 sequence (A0A0D1JHQ1 1-167): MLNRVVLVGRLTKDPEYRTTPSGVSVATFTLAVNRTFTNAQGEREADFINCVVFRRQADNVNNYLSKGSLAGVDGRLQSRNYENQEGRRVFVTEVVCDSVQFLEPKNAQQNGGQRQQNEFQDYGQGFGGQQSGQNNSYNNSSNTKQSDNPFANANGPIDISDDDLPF

[2] = biological target: T2, SaSsbA (Staphylococcus aureus) (UniProt A0A0D1JHQ1); assay: EMSA; settings: EMSA: 40 mM Tris-HCl pH 7.5, 50 mM NaCl, 37 C, 60 min, 30 fmol/uL DNA (30 nM); 8% native PAGE in TBE
T2 sequence: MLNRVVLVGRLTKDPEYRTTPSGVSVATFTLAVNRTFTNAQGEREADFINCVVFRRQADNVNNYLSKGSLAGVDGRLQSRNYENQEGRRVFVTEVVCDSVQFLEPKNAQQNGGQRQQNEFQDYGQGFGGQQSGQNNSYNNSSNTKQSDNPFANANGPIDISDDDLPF

SaSsbA [3] = biological target: T3, SaSsbA (Staphylococcus aureus, UniProt A0A0D1JHQ1 1-167); assay: EMSA; no shift up to 10 uM protein; EMSA: 40 mM Tris-HCl pH 7.5, 50 mM NaCl, 37 C, 60 min, 30 fmol/uL DNA (30 nM); 8% native PAGE in TBE; settings: protein: recombinant; chain copies: 4; label: biotin on PS4 (strand 1); blunt
SaSsbA [4] = biological target: T3, SaSsbA; assay: EMSA; EMSA: 40 mM Tris-HCl pH 7.5, 50 mM NaCl, 37 C, 60 min, 30 fmol/uL DNA (30 nM); 8% native PAGE in TBE; settings: protein: recombinant; chain copies: 4; label: 5' biotin; single strand

Molecule: O=c1c(O)c(-c2cc(O)c(O)c(O)c2)oc2cc(O)cc(O)c12 [myricetin]
- IC50 (SaSsbA [1]; read-out: no inhibition at 300 μM): > 300 µM

Molecule: O=C1c2c(O)cc(O)cc2O[C@H](c2ccc(O)c(O)c2)[C@H]1O [dihydroquercetin]
- IC50 (SaSsbA [1]; read-out: no inhibition at 1000 μM): > 1000 µM

Molecule: O=C1c2c(O)cc(O)cc2O[C@H](c2ccc(O)cc2)[C@H]1O [dihydrokaempferol]
- IC50 (SaSsbA [1]; read-out: IC50): 750 ± 62 µM

Molecule: CCCGAATTCGGATAGCTCGGTACCCTTTTTTTTTTTTTTTTTTTTTTTTT / GGGTACCGAGCTATCCGAATTCGGG [PS4/PS3-3'-dT25]
- K half [2]: 940 nM

B1: PS4/PS3 (dsDNA)
DNA 1: GGGTACCGAGCTATCCGAATTCGGG
DNA 2: CCCGAATTCGGATAGCTCGGTACCC
- binding result (SaSsbA [3]): no binding

Molecule: TTTTTTTTTTTTTTTTTTTTTTTTTTTTTT (ssDNA) [dT30]
- apparent K (half saturation) (SaSsbA [4]): 460 ± 30 nM

Molecule: TTTTTTTTTTTTTTTTTTTT (ssDNA) [dT20]
- apparent K (half saturation) (SaSsbA [4]): 1770 ± 110 nM

B2: dT59 (ssDNA)
DNA: TTTTTTTTTTTTTTTTTTTTTTTTTTTTTTTTTTTTTTTTTTTTTTTTTTTTTTTTTTT
- apparent K (half saturation) (SaSsbA [4]): 240 ± 10 nM

Molecule: TTTTTTTTTTTTTTTTTTTTTTTTTTTTTTTTTTT (ssDNA) [dT35]
- apparent K (half saturation) (SaSsbA [4]): 360 ± 20 nM
